B1: Double-stranded RNA-binding protein Staufen homolog 1, residues 183 to 249; numbered along this chain, O95793 (parent)
chain: KSEISQVFEIALKRNLPVNFEVARESGPPHMKNFVTKVSVGEFVGEGEGKSKKISKKNAAIAVLEEL

Variants of: B1
Test: abundance fitness (aPCA) (normalised: wild type 0, dead -1); higher = more abundant; growth selection in yeast, the domain comes from the species named
Conditions: Homo sapiens

Abundance fitness of substitutions, site by site:
A11: R -0.829, T -0.653, I -1.08, E -0.822, G 0.035, C -0.825, F -1.13, M -0.913, Q -0.732, S -0.358, K -0.633, N -0.564, D -0.679, P -0.891, Y -0.967, W -0.91, V -0.892, L -0.9
V7: R -0.631, K -0.586, L -0.142, S -0.656, T -0.717, F -0.748, H -0.857, P -0.68, D -0.676, C -0.607, E -0.486, Q -0.681, G -0.626, A -0.781, Y -0.782, I -0.24, M -0.295, W -1.13
N15: L -0.531, C -0.325, A -0.198, S -0.146, T -0.431, H 0.006, D -0.156, I -0.629, Q -0.144, G 0.025, F -0.557, E -0.231, Y -0.637, M -0.296, V -0.785, R -0.155
S2: K -0.015, Y -0.653, T -0.235, H -0.546, W -0.902, Q -0.305, I -1.02, R -0.382, V -0.7, P -0.328
F8: S -0.394, G -0.332, V -0.203, T -0.337, K -0.135, D -0.408, A -0.334, C -0.258, P -0.457, R -0.129, L -0.112, W 0.064, Y 0.129, H -0.012, M -0.143, N -0.317, E -0.268
P17: H -0.093, E -0.09, W -0.56, G -0.24, Y -0.288, S -0.008, Q -0.037, V -0.174, R -0.025, C -0.447, A -0.09, L -0.196, K 0.031, N -0.112, T 0.012, I -0.323, M -0.172
V22: H -0.083, L 0.016, T 0.034, F -0.165, R 0.069, S -0.059, A -0.022, K 0.105, E -0.033, W -0.36, D -0.102, M -0.081, C -0.087, N -0.114, Y -0.094, I -0.005, Q -0.031, P 0.056
I10: T -0.542
Q6: C -0.283, S -0.255, P -0.697, E -0.021, G -0.634, T -0.198, F -0.653, N -0.494, M -0.169, L -0.158, I -0.393, H -0.415, R -0.097, D -0.435
E21: Y -0.172, N -0.226, M -0.181, H -0.072, P -1.05, V -0.023, L -0.133, F -0.055, C -0.114, S -0.078, K -0.049, W -0.009, G -0.165, A -0.059, R -0.084, D -0.105, I -0.204, Q 0.014
L16: V -0.176, E -0.472, W -0.063, H -0.708, A -0.421, C -0.515, G -0.863, K -0.432, D -0.54, S -0.609, N -0.716, T -0.594, F -0.424, Y -0.454, M -0.131, R -0.587, I -0.196, P -0.663, Q -0.128
R14: A -0.204

— the Human Domainome abundance scans (Beltran et al. 2025)
